From patent US9663815B2, “Cytosolically-active peroxidases as reporters for microscopy” (Massachusetts Institute of Technology, priority 2011, dated 2017)

Columns and labels:
[1] = system: HEK cells; experiment: DAB staining of transfected cells (brightfield); type: cell-based
Experimental: Next, the activity of wt APX and mAPX was compared in mammalian cells.
(§1) To generate a monomeric APX with improved activity, the two mAPX mutations (K14D/E112K) were added to each of the activity-enhanced mutants. […] The sextuple mutant (K14D, E112K, W41F, D133A, T135F, K136F=mAPX−FFAF), was compared to mAPX+W41F within cells. HEK cells were transfected with constructs targeted to the mitochondrial matrix (Table 3), while COS-7 cells were transfected with constructs fused to the C-terminus of connexin 43 (Table 3). After fixation, the cells were treated with DAB and H2O2 to generate DAB polymer. […] After fixation, cells were stained with anti-Flag (for matrix) or anti-myc (for connexin) antibody to visualize peroxidase expression levels. […] Therefore mAPX+W41F (K14D/E112K/W41F) was selected, denoted as “APEX” (for Enhanced APX), as the optimized reporter for subsequent experiments.
A solution of 4% formaldehyde (freshly depolymerized from paraformaldehyde) with 2% glutaraldehyde in 10 mM phosphate buffered saline (PBS) was added to cells 24 hours after transfection. Cells were treated for 3 min at room temperature, then 30 min on ice. Cells were then washed 5×2 min using ice cold 10 mM PBS. Cells were blocked with 20 mM glycine for 5 min on ice. Cells were then washed 5×2 min with ice-cold 10 mM PBS. Cells were then treated with an ice-cold solution of DAB (0.5 mg/mL) and H2O2 (0.03%) in 10 mM PBS for 20 min. Cells were then washed 5×2 min with ice-cold 10 mM PBS. Cells were treated with 2% OsO4 in ice-cold 10 mM PBS for 30 min, then washed 5×2 min with ice-cold distilled deionized water. Cells were then placed under ice-cold 2% aqueous uranyl acetate for 24 hours.
(§2) Any cell displaying detectable GFP fluorescence was considered transfected. Contact sites between neighboring transfected cells were identified using DIC imaging. Gap junctions were identified as lines of GFP fluorescence unambiguously overlaying with the plasma membrane of two transfected cells based on DIC. DAB stain intensity for APX-NES variants was analyzed using SlideBook. Transfected cells were identified by nuclear YFP fluorescence. In each transfected cell, a representative DAB-stained region was encircled, and its average brightfield intensity was calculated. Background intensity, determined for each field of view by encircling a representative region in the cytosol of an untransfected cell, was subtracted out. The bar graph in FIG. 2c represents mean data from >60 transfected cells.

[2] = Guaiacol activity assay (Michaelis-Menten kinetics); type: biochemical; settings: guaiacol as substrate, purified enzyme
Experimental: Data points represent the mean±standard deviation of 2-3 independent measurements. Initial rates are shown as a function of guaiacol concentration. H2O2 concentration was 90 μM, and enzyme concentration was 20 nM in all trials. Oxidation to tetraguaiacol was monitored by absorbance at 470 nm (ε470=22×10^3 M^−1 cm^−1)^2.
High activity toward guaiacol generally correlated well with robust polymerization of DAB in vitro. Guaiacol assays were performed on a Nanodrop 2000c UV-vis spectrophotometer (Thermo Scientific) using its cuvette reader. HRP (Sigma) was prepared as a 10 μM stock in PBS, flash frozen and stored at −80° C., and thawed immediately before use. Guaiacol peroxidase activity was measured according to the protocol of Lad et. al.^35 Oxidation to tetraguaiacol was monitored by absorbance at 470 nm (ε470=22×10^3 M^−1 cm^−1). Kcat and KM were calculated by nonlinear regression fitting to the Michaelis-Menten equation using OriginPro (OriginLab Corporation). All values are reported as the mean±standard deviation for 2-3 independent Michaelis-Menten fittings, with each fitting using at least 5 values of substrate concentration ranging between 0.25 and 30 mM.
In order to improve the performance of mAPX in mammalian cells, monomeric APX was engineered with improved activity toward DAB in the hope that faster kinetics could compensate for diminished heme binding. The substrate binding site of APX was compared to that of HRP, which has faster kinetics and broader aromatic substrate tolerance (Henriksen, et. al., Journal of Biological Chemistry 274, 35005-35011 (1999)). In order to make APX more HRP-like, seven mutants of APX were designed that incorporated mostly aromatic residues into the active site (FIG. 5a). A colorimetric assay was employed using guaiacol, a prototypical aromatic peroxidase substrate, to determine Michaelis-Menten parameters (Kumar, et. al., Journal of Cell Science 108, 3725-3734 (1995); Henriksen, et. al., Journal of Biological Chemistry 274, 35005-35011 (1999)) (FIG. 5b and FIG. 10). […]

[3] = Gel filtration chromatography, oligomerization state; type: physicochemical; settings: PBS pH 7.4
Experimental: APX, fluorescent protein, or miniSOG preparations were diluted to the desired concentrations using chilled (4° C.) PBS and then allowed to incubate at room temperature for 30 min to overnight. Samples (100 μL) were run on a Waters HPLC system over a Superdex 75 10/300 column (GE Healthcare) that had been pre-equilibrated in PBS, pH 7.4. Samples were run isocratically in PBS at a flow rate of 0.5 mL/min. Elution of APX was monitored at 280 nm and 405 nm (heme absorbance). Empower software (Waters) was used for analysis of elution profiles. Apparent MWs were determined against low molecular weight standards (GE). […] The apparent MW of the monomer for wt APX was assumed to be equal to the apparent MW of mAPX at 0.25 μM.
To investigate whether this localization is an artifact of APEX dimerization at high concentrations, the experiment was repeated using a tandem dimer of APX^W41F (two APX^W41F proteins linked with a short amino acid chain, denoted tdAPX) as well as miniSOG in place of APEX. Additionally, gel filtration chromatography (GFC) was used to assess the relative abundance of oligomers that formed at increasing tdAPX concentrations in vitro (5 μM, 20 μM, and 47 μM). Three different linker lengths (18, 23, and 28 amino acids) were tested. His6-tagged proteins were expressed and purified from E. coli. All three variants gave a major peak with an apparent molecular weight (MW) of ˜56 kDa, as expected for tdAPX. The apparent MW of the major peak remained constant as a function of concentration for all three constructs. […] Therefore, the 28 amino acid linker variant was selected as the optimized tandem dimer to be used in EM experiments.

[4] = system: COS-7 cells; experiment: EM imaging after DAB/OsO4 staining; type: cell-based
Experimental: Transfected cells cultured on poly-d-lysine coated glass bottom dishes (P35GC-0-14-C, MatTek Corp.) were fixed using room temperature 2% glutaraldehyde (Electron Microscopy Sciences) in 100 mM sodium cacodylate buffer with 2 mM CaCl2, pH 7.4, then quickly moved to ice. Cells were kept between 0 and 4° C. for all subsequent steps until resin infiltration. After 30-60 min, cells were rinsed 5×2 min in chilled buffer, then treated for 5 min in buffer containing 20 mM glycine to quench unreacted glutaraldehyde, followed by 5×2 min rinses in chilled buffer. A freshly-diluted solution of 0.5 mg/mL 3,3′-diaminobenzidine (DAB) tetrahydrochloride or the DAB free base (Sigma) dissolved in HCl were combined with 0.03% (v/v) H2O2 in chilled buffer, and the solution was added to cells for 1 to 15 min, depending on the sample. The reaction product generation could be monitored by transmitted LM. To halt the reaction, the DAB solution was removed, and cells were rinsed 5×2 min with chilled buffer. For correlated LM-EM imaging of connexin43-GFP-APEX, the procedure was the same except cells were immersed in 2% glutaraldehyde for ˜16 h, and regions of interest were identified by GFP fluorescence prior to treatment with DAB. After the DAB reaction was halted, cells were post-fixed for 30 min using 2% osmium tetroxide (Electron Microscopy Sciences) in chilled buffer. Cells were rinsed 5×2 min in chilled distilled water, then placed in chilled 2% aqueous uranyl acetate (Electron Microscopy Sciences) overnight. […]
DAB-stained areas of embedded cultured cells were identified by transmitted light and the areas of interest were sawed out using a jeweler's saw and mounted on dummy acrylic blocks with cyanoacrylic adhesive. […] Electron micrographs recorded using a JEOL 1200 TEM operating at 80 keV.

[5] = system: MCU (mitochondrial calcium uniporter); experiment: Functional assay for Ca2+ uptake of MCU fusions; type: cell-based, human; settings: fusion to MCU, versus Flag-tagged MCU; data not shown
[6] = system: connexin43 (Cx43); experiment: Connexin43 fusion localization to gap junctions; type: cell-based, rat; settings: for localization of connexin43 fusion / gap junction formation: fused to connexin43
Experimental: Both mAPX and wt APX were fused to connexin43 (Cx43), a protein that is sensitive to oligomeric tags (FIG. 4d) (McKinney, et. al., Nat Meth 6, 131-133 (2009); Lauf, et. al., FEBS letters 498, 11-15 (2001)).
as §1, §2

B1: mAPX-NES: Flag-mAPX with C-terminal nuclear export signal, cytosolic expression (protein, UniProt P48534 2-250, looked up, variant K14D E112K)
L-ascorbate peroxidase, …: GKSYPTVSPDYQDAIEKAKRKLRGFIAEKKCAPLILRLAWHSAGTFDSKTKTGGPFGTIKHQAELAHGANNGLDIAVRLLEPIKEQFPIVSYADFYQLAGVVAVEITGGPKVPFHPGREDKPEPPPEGRLPDATKGSDHLRDVFGKAMGLSDQDIVALSGGHTIGAAHKERSGFEGPWTSNPLIFDNSYFTELLTGEKDGLLQLPSDKALLTDSVFRPLVEKYAADEDVFFADYAEAHLKLSELGFAEA
modifications: N-terminal Flag tag; C-terminal nuclear export signal
notes: Flag-mAPX with C-terminal nuclear export signal, cytosolic expression
activity after culturing the cells with heme ([1]; cytosol (NES), heme added after transfection): significantly boosted

B2: W41F/G69F/D133A/T135F/K136F: quintuple, most HRP-like active-site mutant of pea APX (protein, UniProt P48534 2-250, looked up, variant W41F G69F D133A T135F K136F)
L-ascorbate peroxidase, …: GKSYPTVSPDYQKAIEKAKRKLRGFIAEKKCAPLILRLAFHSAGTFDSKTKTGGPFGTIKHQAELAHFANNGLDIAVRLLEPIKEQFPIVSYADFYQLAGVVAVEITGGPEVPFHPGREDKPEPPPEGRLPAAFFGSDHLRDVFGKAMGLSDQDIVALSGGHTIGAAHKERSGFEGPWTSNPLIFDNSYFTELLTGEKDGLLQLPSDKALLTDSVFRPLVEKYAADEDVFFADYAEAHLKLSELGFAEA
activity in vitro (guaiacol) [2]: most active

B3: APEX: triple mutant K14D/W41F/E112K of pea APX, Enhanced APX reporter (protein, listed as Pisum sativum)
chain: MGKSYPTVSPDYQDAIEKAKRKLRGFIAEKKCAPLILRLAFHSAGTFDSKTKTGGPFGTIKHQAELAHGANNGLDIAVRLLEPIKEQFPIVSYADFYQLAGVVAVEITGGPKVPFHPGREDKPEPPPEGRLPDATKGSDHLRDVFGKAMGLSDQDIVALSGGHTIGAAHKERSGFEGPWTSNPLIFDNSYFTELLTGEKDGLLQLPSDKALLTDSVFRPLVEKYAADEDVFFADYAEAHLKLSELGFAEA
oligomerization state [3]: equally monomeric to mAPX
DAB staining activity in mitochondrial matrix ([1]; mitochondrial matrix-targeted constructs, HEK cells): much stronger DAB stain
EM contrast / DAB staining, ER lumen ([4]; KDEL-targeted, COS-7): dense DAB staining throughout the ER tubular network
EM contrast / DAB staining, mitochondrial matrix ([4]; Mito matrix-APEX, COS-7): strong contrast and well-defined cristae structures
activity in the intermembrane space (IMS) ([4]; separate controls): highly active
Ca2+ uptake of MCU fusion [5]: performed comparably to MCU appended to a small Flag epitope tag
DAB stain of connexin fusion ([6]; COS-7 cells, fused to C-terminus of connexin 43): strong DAB stain
localization of connexin43 fusion / gap junction formation [6]: behaves well as a fusion to Cx43
localization of connexin43 fusion / gap junction formation ([6]; listed as mAPX+W41F): incorporated well into gap junctions

B4: mAPX−FFAF: sextuple mutant K14D, E112K, W41F, D133A, T135F, K136F of pea APX (protein, UniProt P48534 2-250, looked up, variant K14D E112K W41F D133A T135F K136F)
L-ascorbate peroxidase, …: GKSYPTVSPDYQDAIEKAKRKLRGFIAEKKCAPLILRLAFHSAGTFDSKTKTGGPFGTIKHQAELAHGANNGLDIAVRLLEPIKEQFPIVSYADFYQLAGVVAVEITGGPKVPFHPGREDKPEPPPEGRLPAAFFGSDHLRDVFGKAMGLSDQDIVALSGGHTIGAAHKERSGFEGPWTSNPLIFDNSYFTELLTGEKDGLLQLPSDKALLTDSVFRPLVEKYAADEDVFFADYAEAHLKLSELGFAEA
localization of connexin43 fusion / gap junction formation [6]: formed very few gap junctions
